Experiments:
[1] = target: mKO-^MalFNTPBP2 (E. coli); test: FRET or BRET; three-plasmid FRET in LMC500 cells; third plasmid: empty pSG4K5 vector
[2] = target: mKO-^MalFNTPBP2 (E. coli); test: FRET or BRET; three-plasmid FRET in LMC500 cells; third plasmid expresses non-fused MreC
[3] = target: mKO-^MalFNTPBP2 (E. coli); test: FRET or BRET; three-plasmid FRET in LMC500 cells; third plasmid expresses non-fused MreCD
[4] = target: mKO-^MalFNTPBP2 (E. coli); test: FRET or BRET; two-plasmid spectral FRET in E. coli LMC500 cells; mCherry fusion as acceptor, mKO fusion as donor; Gb4 medium, steady state at 28 C, 15 uM IPTG for two mass doublings, FAGA-fixed; acceptor FRET efficiency (EfA) by spectral unmixing
[5] = target: mKO-^MalFNTPBP2 (E. coli); test: FRET or BRET; two-plasmid FRET in LMC500 cells; mCherry-MreC and non-fused MreD co-expressed from one plasmid (mCh-MreCD), mKO fusion as donor
[6] = target: mKO-^MalFNTPBP2 (E. coli); test: FRET or BRET; as the two-plasmid FRET, cells treated with mecillinam (2 mg/L) for two mass doublings

EfA (acceptor FRET efficiency) [1] [%]	EfA (acceptor FRET efficiency) [2] [%]	EfA (acceptor FRET efficiency) [3] [%]	EfA (acceptor FRET efficiency) [4] [%]	EfA (acceptor FRET efficiency) [5] [%]	EfA (acceptor FRET efficiency) [6] [%]	Substance
9.4	9.8	8.7	10.5	–	–	PBP2 (wild type), fused to mKO or to mCherry (from UniProt P0AD65 1-633) (enzyme)
–	–	–	5.4	5.4	–	mCh-MreC (from UniProt P16926 1-367) (natural protein)
7.6	4.2	5.5	11.8	–	6.2	RodA (wild type), fused to mCherry or to mKO (from UniProt P0ABG7 1-370) (enzyme)
